Measured values as given in patent publication US20080286228A1 (published 2008).
Non-standard residues stand in square brackets, D forms with d. No end group written: not given here.

Legend:
[1] = molecular target: T1, C5a receptor expressed on the surface of human PMNs (human, UniProt P21730 1-350); assay: competition with 125I-C5a on intact human PMNs
T1 construct: whole, on cells; also called C5aRs; C5aR5
T1 sequence (looked up): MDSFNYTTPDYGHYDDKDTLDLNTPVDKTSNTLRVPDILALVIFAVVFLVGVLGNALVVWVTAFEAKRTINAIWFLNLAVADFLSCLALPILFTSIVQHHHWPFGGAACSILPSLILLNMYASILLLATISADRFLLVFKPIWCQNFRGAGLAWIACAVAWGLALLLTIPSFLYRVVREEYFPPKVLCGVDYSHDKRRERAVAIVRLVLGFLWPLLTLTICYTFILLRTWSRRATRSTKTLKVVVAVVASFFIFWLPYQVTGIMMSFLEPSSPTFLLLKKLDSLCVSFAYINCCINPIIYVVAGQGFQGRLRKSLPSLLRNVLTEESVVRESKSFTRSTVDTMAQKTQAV
Experimental: Statistical analysis of the values obtained from pharmacologic assays was performed using one-way analysis of variance (ANOVA).

[2] = molecular target: T1, C5a receptor expressed on the surface …; assay: cell-based or functional assay
[3] = molecular target: T1, C5a receptor expressed on the surface …; assay: cell-based or functional assay; remark: listed apart in the source

B1: natural C5a (ligand, UniProt P01031 678-751, looked up)
chain: TLQKKIEEIAAKYKHSVVKKCCYDGACVNNDETCEQRAARISLGPRCIKAFTECCVVASQLRANISHKDMQLGR
notes: C5a is a fragment of it
[1]
  IC50: 0.0004 µM
  pD2 (-log IC50 (M)): 9.43 -log IC50 (M)
[2]
  MPO release from human PMNs, EC50: 0.003 µM
  MPO release from human PMNs, pD2: 8.5 -log EC50 (M)
[3]
  smooth muscle contraction of human umbilical artery, EC50: 0.002 µM
  smooth muscle contraction of human umbilical artery, pD2: 8.77 -log EC50 (M)

## YSFKPMPL[dA]RRRIPQSLDSWWTSL (synthetic peptide) [YSFKPMPLa[…]]
[1]
  IC50: 465 µM
  pD2 (-log IC50 (M)): 3.33 -log IC50 (M)
[2]
  MPO release from human PMNs, EC50: > 1000 µM
  MPO release from human PMNs, pD2: > 3 -log EC50 (M)
[3]
  smooth muscle contraction of human umbilical artery, EC50: 39.4 µM
  smooth muscle contraction of human umbilical artery, pD2: 4.41 -log EC50 (M)

## IPQSLDSWWTSLRRYSFKPMPL[dA]RG (synthetic peptide) [IPQSLDSWWTSLRRYSFKPMPLaRG]
[1]
  IC50: 17 µM
  pD2 (-log IC50 (M)): 4.77 -log IC50 (M)
[2]
  MPO release from human PMNs, EC50: 2.56 µM
  MPO release from human PMNs, pD2: 5.59 -log EC50 (M)
[3]
  smooth muscle contraction of human umbilical artery, EC50: 6.78 µM
  smooth muscle contraction of human umbilical artery, pD2: 5.17 -log EC50 (M)

B2: IPQSLDSWWTSLRVRRYSFKPMPLaR (peptide)
peptide: IPQSLDSWWTSLRVRRYSFKPMPL[dA]R
notes: synthetic peptide; also called RVRR-containing C5a-active construct
[1]
  IC50: 0.529 µM
  pD2 (-log IC50 (M)): 6.28 -log IC50 (M)
[2]
  MPO release from human PMNs, EC50: 2.15 µM
  MPO release from human PMNs, pD2: 5.61 -log EC50 (M)
[3]
  smooth muscle contraction of human umbilical artery, EC50: 0.18 µM
  smooth muscle contraction of human umbilical artery, pD2: 6.67 -log EC50 (M)

## IPQSLDSWWTSLYSFKPMPL[dA]R (synthetic peptide) [IPQSLDSWWTSLYSFKPMPLaR]
[1]
  IC50: 3.69 µM
  pD2 (-log IC50 (M)): 5.43 -log IC50 (M)
[2]
  MPO release from human PMNs, EC50: 1.58 µM
  MPO release from human PMNs, pD2: 5.8 -log EC50 (M)
[3]
  smooth muscle contraction of human umbilical artery, EC50: 0.21 µM
  smooth muscle contraction of human umbilical artery, pD2: 6.68 -log EC50 (M)

B3: IPQSLDSWWTSLRRYSFKPMPLaR (peptide)
peptide: IPQSLDSWWTSLRRYSFKPMPL[dA]R
notes: synthetic peptide; also called double-Arg-linked C5a-active construct
[1]
  IC50: 0.416 µM
  pD2 (-log IC50 (M)): 6.38 -log IC50 (M)
[2]
  MPO release from human PMNs, EC50: 0.54 µM
  MPO release from human PMNs, pD2: 6.27 -log EC50 (M)
[3]
  smooth muscle contraction of human umbilical artery, EC50: 0.161 µM
  smooth muscle contraction of human umbilical artery, pD2: 6.79 -log EC50 (M)

B4: C5a C-terminal decapeptide agonist analog YSFKPMPLaR (peptide)
peptide: YSFKPMPL[dA]R
notes: synthetic peptide; also called C5a agonist
[1]
  pD2 (-log IC50 (M)): 5.63 -log IC50 (M)
[3]
  smooth muscle contraction of human umbilical artery, EC50: 0.01 µM
  smooth muscle contraction of human umbilical artery, pD2: 6.99 -log EC50 (M)
